From publication PMC10653858 (mBio, 2023) come the findings set out here.

The experiment concerns the target LegAS4 (84–532aa), RomA homolog of L. pneumophila strain Philadelphia (L. pneumophila strain Philadelphia, UniProt Q5ZUS4 84-532). The experiment in a line: crystal structure. Particulars: both partners purified.

B1: histone H3 peptide P1 (15-mer, residues 3-17), NH2-TKQTARKSTGGKAPR-COOH (peptide)
peptide: H-TKQTARKSTGGKAPR-OH
notes: also called 15-mer peptide; (3-17)-N-terminal H3 P1 peptide
B1: the binding result is “binds”.

B2: histone H3 peptide P2 (12-mer, residues 1-12), NH2-ARTKQTARKSTG-COOH (peptide)
peptide: H-ARTKQTARKSTG-OH
notes: also called 12-mer peptide
Turning to B2, the binding result is recorded as “binds”.
